System: K4 kissing-loop RNA reporter
Assay: apparent KD of K4 kissing-loop reporter; higher = weaker reporter binding
Settings: Eterna round: R107
Protocol: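 RNA-MaP round R107: designed RNA switches with theophylline, tryptophan, arginine or FMN aptamers are transcribed on-chip within common flanks. They are titrated with a labelled K4 kissing-loop RNA reporter in RNA-MaP buffer (100 mM Tris pH 7.5, 80 mM KCl, 4 mM MgCl2), without ligand or with the indicated ligand. Median apparent KD per design.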

[1] = input ligand: theophylline 20 uM
[2] = input ligand: tryptophan 2.4 mM
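Note: bound reporter read as fluorescence of individual clusters on recovered sequencing chips by microscopy, with normalized cluster intensities fitted with a binding model.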

Sequence	apparent KD of K4 kissing-loop reporter (input ligand: FMN 200 uM) [nM]	apparent KD of K4 kissing-loop reporter (input ligand: arginine 13.2 mM) [nM]	apparent KD of K4 kissing-loop reporter (input ligand: none) [nM]	apparent KD of K4 kissing-loop reporter [1] [nM]	apparent KD of K4 kissing-loop reporter [2] [nM]
AUCGUUGUCUGAGGAUAUCGGUUAUCUGUAGUGAUGUUACAGUAUAUUGAUAUUAUAGUUUCUUUUCGAGAAGGCAGACUACGUA [JR_Nu_ExcFMNB_Sub021]	74.1	61.3	68.9	65.4	66.4
AUGAGGAGCAGUGAUCCUAUUCCAUGGGAAGGAGCGUAGGAUACUACAGGUAGGUCGCCCAGUGAUGUUGGGCGCGUGCUCUUGG [Zaqua]	159	133	133	178	146
AUGCGACGUGCGGCCGCCACUCGGAUGCGAGUGAUGUUCGCGGGACGGACGCAAGUCCGUCAUUCGAGGACCGGGCAUCGGUGUA [#2 Same State - Tryptophan B Attempt #2 (HarryS)]	555	462	636	512	139
AUGCGCAGCCUGCUUACGUAUGAGCCGGAAGGAGCGGCAGAAUUGCCAGGUAGGUCGCCGGCCCAGUGAUGUUGGGAUGGUGUGG [Atusqubela]	279	167	343	419	264
AUGCUUUUAAUAACACUAUAUACAGCUGAAGGAGCGACAAUAAAGUCAGGUAGGUCGCAGAAUAGAUGAGUGAUGUUCAUUUUUA [#05 K4 Arginine A Exclusion]	92.8	178	118	166	76.9
AUGGUAUUGCGAGGAUAUCCUUCAAACGUGACACUAACGGCAGUGAUGUUGCCGGCGUCGAUCAGAGGAGAAGGCGCGGUGUUAU [Exclusion FMN B GF 23]	118	117	122	125	119
AUGUCUUAUAAACUCGUGGUUUCGAUCGAUACCAGUAGCGAGAGUUACCCUUGGCAGCGACAUGAGUGAUGUUCAUGUACGAAGA [KL-XTheoA4]	96.1	89	94.3	90.2	92.9
AUUAAUAUCACGGCCGCCACUGAAUAUUGUUUUUAUAUUUAGAAAUCUUGCCAGUGAUGUUGGAUCAGGACCGGGUGAGUUUAUA [JR_SSTryptoB_Sub006]	613	439	463	424	444
AUUCGUUUAUGUGAUACCAGACUUUGCAGUGAUGUUGCUUUAAUUAAAGAUGUUUAGUUUGUCCCUUGGCAGCACUAUUUAUUUA [JR_SSTheophyB_Sub001]	54	113	68.4	129	48.8
AUUUGUUUAUGUGAUACCAGACUUUGCAGUGAUGUUGCAUUUAUUUUAGAAGAAUAGUUUGUCCCUUGGCAGCACUAUGUAUUUA [JR_SSTheophyB_Sub006]	44.9	98.2	49.3	80.7	41.5
AUUUUUUUGUCAGGAUAUUAGUAUGCUUUUGGUUUGUUAGUGAUGUUGAUAUUUUGUUUAUGUAUUUAAGAAGGGAUUUAGCGGU [etvuumullin]	409	276	362	371	255
AUUUUUUUGUCAGGAUAUUAGUGUGCGUUUGGUUUGUUAGUGAUGUUGAUAUUUGGUUUAUGUAUUUAAGAAGGGAUUUAGCGGU [dhbbtemullin]	557	480	562	582	357
CAAACGUGCGGUAGGUUCAAGCGCUGGGAAGGAGCGCAGAUGACUGCAGGUAGGUCGCCCAGUGAUGUUGGGCUUUCCACCUACG [Dilausma]	138	123	119	138	99.9
CACAGAUCCUAAGGAUAUGGAGUGAUGUUCGCAAGUUCUUGGUGUGCAUUCAUCUGUCCUAUCAACCCAGAAGGUAGGAAGUCAC [theeternabot_exclusion_KL_FMN_B_1]	607	516	550	993	604
CACCAUGAAUUCUCUAGGAGUGAUGUUUUUCGAGGACCGGUACGGCCGCCACUCGGACGAGGACCGUGGGAGCGGCGAACCGACU [ddfgmullin]	172	74.7	208	334	150
CAGGCGACUAUCGAUACCAGAUGAUAUCGACUACUUGAGUGAUGUUCGAUUAAAGGCAUUAUCCCUUGGCAGCGACUGGACACAU [theeternabot_sameState_KL_Theo_B_24]	706	505	667	659	414
CAGGUGCUGAUGCGGUGGCCGGUGGUCGUGCGAGGACCGGUACGGCCGCCACUCGCAUGAGUGAUGUUCAUGUGUCGUCGUCGUC [whbob_EX_Tryp_A_t2]	229	136	188	192	223
CAUACGCAUGGAGGAUAUGAGAUUACUCGUAUCAUUUAAUAUUCUCAGUGAUGUUGAGAUUUGGGCUCAGAAGGCCAUGUGUAUG [Ex FMN B 16]	393	261	290	324	288
CAUACGCAUGGAGGAUAUGAGAUUUCUCAUGUCAUUUAAUAUUCUCAGUGAUGUUGAGAAUUUGGCUCAGAAGGCCAUGUGUAUG [Ex FMN B 20]	254	465	508	426	403
CAUAGGAAACUAUGUUUCUCUCUUACUGAAGGAGCGCGUGAAAACGCAGGUAGGUCGCAGAAUUUGAGAGUGAUGUUCUCAAUAA [Ex Arginine A K4 13]	114	149	151	167	116
CAUGUGUCUAUUACGAUGGAUACAUAUACUGAGGAUAUCACAUUUAUGAGAAGGCAGUAAACUGCGAGUGAUGUUCGCAGUACGU [FMN A SS t8]	159	204	214	316	248

— the supplement of paper PMC9170038
